T1: MICA008-ECD-HISAvi (human)
T1 construct: Two sources under one name in the two kinetic assays; also called MICA008 polypeptide
T1 chain: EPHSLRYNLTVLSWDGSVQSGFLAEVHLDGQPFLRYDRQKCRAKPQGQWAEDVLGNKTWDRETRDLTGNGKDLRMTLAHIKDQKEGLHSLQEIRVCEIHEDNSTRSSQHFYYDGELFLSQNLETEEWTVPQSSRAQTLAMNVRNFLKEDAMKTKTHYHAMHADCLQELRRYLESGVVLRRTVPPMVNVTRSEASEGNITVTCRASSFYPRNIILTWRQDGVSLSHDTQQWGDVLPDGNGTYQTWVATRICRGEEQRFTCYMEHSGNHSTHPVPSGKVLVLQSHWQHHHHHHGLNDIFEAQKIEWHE

T2: MICA004-ECD-HISAvi (human)
T2 construct: also called MICA004 polypeptide
T2 chain: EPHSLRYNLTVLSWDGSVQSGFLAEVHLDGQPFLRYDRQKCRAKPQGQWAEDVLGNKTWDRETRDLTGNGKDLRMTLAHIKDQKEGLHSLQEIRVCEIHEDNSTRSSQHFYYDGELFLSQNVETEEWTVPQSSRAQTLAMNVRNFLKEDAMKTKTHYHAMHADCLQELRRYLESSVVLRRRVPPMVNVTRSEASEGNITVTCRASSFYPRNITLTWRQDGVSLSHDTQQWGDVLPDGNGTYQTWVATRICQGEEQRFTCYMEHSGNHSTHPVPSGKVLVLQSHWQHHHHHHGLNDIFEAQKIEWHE

T3: human MICA002 on cells (human)
T3 chain: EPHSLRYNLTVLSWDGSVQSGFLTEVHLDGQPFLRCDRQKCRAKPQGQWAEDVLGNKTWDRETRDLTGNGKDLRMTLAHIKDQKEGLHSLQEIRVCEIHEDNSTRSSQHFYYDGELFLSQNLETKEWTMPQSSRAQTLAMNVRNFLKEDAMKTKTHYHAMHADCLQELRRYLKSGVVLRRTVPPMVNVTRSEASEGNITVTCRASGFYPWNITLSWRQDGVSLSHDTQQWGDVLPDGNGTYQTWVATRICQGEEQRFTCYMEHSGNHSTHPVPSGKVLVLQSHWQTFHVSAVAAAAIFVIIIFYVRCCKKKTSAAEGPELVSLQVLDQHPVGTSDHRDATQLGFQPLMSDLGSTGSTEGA

T4: MICA002-ECD-HISAvi (human, UniProt Q29983 24-308)
T4 construct: also called MICA002 polypeptide
T4 chain: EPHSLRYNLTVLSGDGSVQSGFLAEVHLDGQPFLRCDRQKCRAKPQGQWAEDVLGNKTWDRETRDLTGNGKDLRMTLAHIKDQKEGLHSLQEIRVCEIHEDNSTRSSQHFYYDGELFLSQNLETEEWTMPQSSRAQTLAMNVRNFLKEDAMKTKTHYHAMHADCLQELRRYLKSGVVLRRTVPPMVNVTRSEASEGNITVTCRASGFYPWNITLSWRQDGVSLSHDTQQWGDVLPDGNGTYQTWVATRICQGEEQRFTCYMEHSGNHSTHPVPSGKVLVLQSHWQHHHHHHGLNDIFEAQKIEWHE

T5: MICB005-ECD-HISAvi (human, UniProt Q29980 24-309)
T5 construct: Two sources under one name in the two kinetic assays; also called MICB005 polypeptide
T5 sequence: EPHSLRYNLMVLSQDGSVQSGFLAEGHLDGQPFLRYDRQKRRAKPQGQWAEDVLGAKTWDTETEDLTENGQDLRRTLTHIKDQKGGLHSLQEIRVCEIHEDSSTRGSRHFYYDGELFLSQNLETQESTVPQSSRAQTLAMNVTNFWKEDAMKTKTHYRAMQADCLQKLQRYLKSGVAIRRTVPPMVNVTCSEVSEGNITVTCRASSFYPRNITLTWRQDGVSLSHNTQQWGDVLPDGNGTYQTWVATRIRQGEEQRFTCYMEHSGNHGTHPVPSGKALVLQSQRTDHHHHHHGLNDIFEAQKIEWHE


Experiments:
MICA008-ECD-HISAvi [1] = target: T1, MICA008-ECD-HISAvi; experiment: SPR (Carterra); antibody captured by anti-human Fc, monomeric ECD antigen injected
Protocol: (§1) The dissociation kinetics were monitored for approximately 10 minutes. The chip surface was regenerated between binding cycles with 10 mM glycine HCl, pH 1.7. Binding kinetics were analyzed using software supplied by the manufacturer.

MICA004-ECD-HISAvi [2] = target: T2, MICA004-ECD-HISAvi; experiment: as above
Protocol: as §1

human MICA004 on cells = target: T6, human MICA004 on cells (human); experiment: flow cytometry, CHO-MICA004 cells
T6 construct: whole, on cells; also called CHO-MICA004; C1R-MICA004
T6 sequence (Q29983 whole entry): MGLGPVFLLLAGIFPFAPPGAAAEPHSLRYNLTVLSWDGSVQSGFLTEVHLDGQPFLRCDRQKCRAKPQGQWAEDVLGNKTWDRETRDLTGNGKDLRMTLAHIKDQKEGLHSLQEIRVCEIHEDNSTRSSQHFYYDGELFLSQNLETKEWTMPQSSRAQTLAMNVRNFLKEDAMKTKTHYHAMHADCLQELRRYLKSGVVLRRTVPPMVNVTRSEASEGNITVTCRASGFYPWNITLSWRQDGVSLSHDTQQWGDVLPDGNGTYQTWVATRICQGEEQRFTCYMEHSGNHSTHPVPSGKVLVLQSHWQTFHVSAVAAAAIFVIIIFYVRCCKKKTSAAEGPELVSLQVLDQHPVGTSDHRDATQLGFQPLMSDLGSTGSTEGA
Protocol: (§2) IgG1 is an isotype control (IgG). The antibody binding signals of APC (gMFI) to MICA/B were measured by flow cytometry.
(§3) After an incubation time of 30 minutes, the plate was centrifuged and cells were washed with PBS three times. […] After mixing for 30 minutes at room temperature, cells were washed with PBS twice. Fluorescent signal was detected and quantified by flow cytometry (Attune™ CytPix™, ThermoFisher) within the population of live cells (viability dye PI negative).

human MICB005 on cells [3] = target: T7, human MICB005 on cells (human); experiment: flow cytometry on CHO-MICB005 cells; column HSA_2w (2 weeks in human serum at 37 C)
T7 construct: whole, on cells; also called CHO-MICB005; C1R-MICB005
Protocol: (§4) The plate was centrifuged, and cells were washed with PBS three times. […] After incubation for 30 minutes at room temperature, cells were washed with PBS twice. Signals of APC were determined by flow cytometry (Attune™ CytPix™, ThermoFisher) within the population of live cells (viability dye PI negative).
(§5) The EC50 values were calculated based on non-linear fitting curves by GraphPad Prism software.

human MICB005 on cells [4] = target: T7, human MICB005 on cells; experiment: flow cytometry, CHO-MICB005 cells
human MICA008 on cells [5] = target: T8, human MICA008 on cells (human); experiment: flow cytometry, CHO-MICA008 cells
T8 construct: whole, on cells; also called CHO-MICA008; C1R-MICA008
T8 sequence (Q29983 whole entry): as above

human MICA002 on cells = target: T3, human MICA002 on cells; experiment: flow cytometry, CHO-MICA002 cells
Protocol: CHO-MICA002 cells were incubated with titrated anti-MICA/B antibodies and then APC-labeled anti-human Fc antibody. […] The antibody binding signals of APC (gMFI) to MICA/B were measured by flow cytometry.
as §3

[6] = target: T9, Cynomolgus monkey MICA (cynoMICA) (Cynomolgus monkey (Macaca fascicularis)); experiment: BLI (GatorPrime); antibody on anti-hIgG Fc probe, monomeric antigen in solution;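 note: binding kinetics of anti-MICA/B antibodies measured by biolayer interferometry, with dissociation followed for about 10 min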
T9 construct: also called cyno monkey MICA; cyno MIC protein
Protocol: (§6) The binding kinetics of the antibodies were also measured using the GatorPrime BLI (Biolayer Interferometry) system (Gator Bio, USA). Specifically, the anti-MICA/B antibodies were loaded with HFC (Anti-hIgG Fc, Gator Bio, Cat #: 160003). […] The dissociation kinetics were monitored for approximately 10 minutes. The probes were regenerated between binding cycles with Regeneration Buffer (Gator Bio, Cat #: 120012). Binding kinetics were analyzed using software supplied by the manufacturer.

MICA008-ECD-HISAvi [7] = target: T1, MICA008-ECD-HISAvi; experiment: as above
Protocol: as §6

MICA002-ECD-HISAvi = target: T4, MICA002-ECD-HISAvi; experiment: as above
Protocol: as §6

MICA009Avi = target: T10, MICA009Avi (human); experiment: as above
T10 construct: extracellular domain
Protocol: as §6

MICB005-ECD-HISAvi = target: T5, MICB005-ECD-HISAvi; experiment: as above
Protocol: as §6

MICA004-ECD-HISAvi [8] = target: T2, MICA004-ECD-HISAvi; experiment: as above
Protocol: as §6

human MICA008 on cells [9] = target: T8, human MICA008 on cells; experiment: flow cytometry, HeLa cells (MICA008)
Protocol: as §2, §3

human MICB005 on cells [10] = target: T7, human MICB005 on cells; experiment: flow cytometry on CHO-MICB005 cells; column HSA_1w (1 week in human serum at 37 C)
Protocol: as §4, §5

| Kd (MICA008-ECD-HISAvi [1]) | Kd (MICA004-ECD-HISAvi [2]) | EC50 (human MICA004 on cells) | EC50 (human MICB005 on cells [3]) | EC50 (human MICB005 on cells [4]) | EC50 (human MICA008 on cells [5]) | EC50 (human MICA002 on cells) | Kd [6] | Kd (MICA008-ECD-HISAvi [7]) | Kd (MICA002-ECD-HISAvi) | Kd (MICA009Avi) | Kd (MICB005-ECD-HISAvi) | Kd (MICA004-ECD-HISAvi [8]) | EC50 (human MICA008 on cells [9]) | EC50 (human MICB005 on cells [10]) | Binder |
| --- | --- | --- | --- | --- | --- | --- | --- | --- | --- | --- | --- | --- | --- | --- | --- |
| 2 nM | 2.78 nM | 0.443 µg/mL | 0.784 µg/mL | 1.08 µg/mL | 0.272 µg/mL | 0.352 µg/mL | 14.3 nM | 0.295 nM | 1.35 nM | 0.936 nM | 2.19 nM | 1.08 nM | 0.115 µg/mL | 0.804 µg/mL | 3F9 (antibody, human IgG1, kappa, V domains shown, also called benchmark 3F9) VH: QVQLVESGGGLVKPGGSLRLSCAASGFTFSNYAMSWIRQAPGKGLEWVSYISPGGDYIYYADSVKGRFTISRDNAKNSLYLQMNSLRAEDTAVYYCTTDRRHYGSYAMDYWGQGTLVTVSS VL: DIVMTQSPLSLPVTPGEPASISCRSSKSLLHSNLNTYLYWFLQKPGQSPQILIYRMSNLASGVPDRFSGSGSGTAFTLKISRVEAEDVGVYYCMQHLEYPFTFGPGTKLEIKR |
| 0.269 nM | 0.52 nM | 0.157 µg/mL | 0.287 µg/mL | 0.198 µg/mL | 0.06 µg/mL | 0.19 µg/mL | 5.2 nM | 0.026 nM | 0.0757 nM | 0.11 nM | 0.195 nM | 0.101 nM | 0.034 µg/mL | 0.229 µg/mL | 1D5 (antibody, human IgG1, kappa, V domains shown, also called ID5) VH: EIQLQQSGPELVKPGASVKVSCKASGYAFTSQNIYWVKQSHGKSLEWIGYIEPYNVVPMYNPKFKGKATLTVDKSSSSAYIHLNSLTSEDSAIYYCARSGSSNFDYWGQGTTLTVSS VL: EIILTQSPTTMAASPGEKITITCSASSSISSHYLHWYQQKSGFSPKLLIYRTSNLASGVPARFSGSGSGTSYSLTIGTMEAEDVATYYCQQGSSLPLTFGAGTKVEIKR |
